Reference: patent US20210324099A1 (Chugai, published 2021)
Where a chain is given by its changes, count along the chain named.

T1: hFcgRIIaR (human, UniProt P12318 34-217)
T1 construct: extracellular domain; also called human FcγRIIa type R (R131)
T1 sequence (looked up): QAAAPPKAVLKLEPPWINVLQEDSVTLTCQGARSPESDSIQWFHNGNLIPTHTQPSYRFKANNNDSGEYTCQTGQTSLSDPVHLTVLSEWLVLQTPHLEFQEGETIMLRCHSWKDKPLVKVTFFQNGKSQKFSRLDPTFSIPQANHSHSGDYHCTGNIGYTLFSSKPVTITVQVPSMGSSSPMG

T2: hFcgRIIb (human, UniProt P31994 43-217)
T2 construct: extracellular domain; also called human FcγRIIb
T2 sequence (looked up): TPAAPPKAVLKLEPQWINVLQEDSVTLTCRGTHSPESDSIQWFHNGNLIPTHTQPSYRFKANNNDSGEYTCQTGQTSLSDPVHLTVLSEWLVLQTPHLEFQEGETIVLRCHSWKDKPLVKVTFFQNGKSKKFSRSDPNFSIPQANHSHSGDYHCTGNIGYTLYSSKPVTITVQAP

T3: hFcgRIIaH (human, UniProt P12318 34-217)
T3 construct: extracellular domain; also called human FcγRIIa type H (H131)
T3 sequence (looked up): T1 sequence (looked up) with R134H

B1: A375-G1T3/B167-Lamlib (antibody, human IgG1, lambda)
heavy: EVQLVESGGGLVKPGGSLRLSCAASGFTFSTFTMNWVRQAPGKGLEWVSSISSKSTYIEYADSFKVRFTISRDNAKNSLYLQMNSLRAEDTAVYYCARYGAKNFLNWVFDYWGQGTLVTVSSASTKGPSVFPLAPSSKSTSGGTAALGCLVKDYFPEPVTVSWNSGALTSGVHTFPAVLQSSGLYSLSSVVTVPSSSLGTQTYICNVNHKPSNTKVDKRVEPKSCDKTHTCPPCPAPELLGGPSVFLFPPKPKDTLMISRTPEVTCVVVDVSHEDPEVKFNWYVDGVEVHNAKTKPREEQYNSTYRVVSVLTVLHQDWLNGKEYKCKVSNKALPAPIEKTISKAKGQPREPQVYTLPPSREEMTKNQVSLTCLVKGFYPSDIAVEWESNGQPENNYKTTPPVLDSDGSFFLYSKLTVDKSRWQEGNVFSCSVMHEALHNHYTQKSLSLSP
light: QSALTQPPSASGSPGQTVTISCTGTRYDVGYYEYVSWYQQHPGKAPKLMIYETSKRLSGVPDRFSGSKSGNTASLTVSGLQAEDEADYYCSSYRYEHQVSFGGGTKLTVLGQPKAAPSVTLFPPSSEELQANKATLVCLISDFYPGAVTVAWKADSSPVKAGVETTTPSKQSNNKYAASSYLSLTPEQWKSHRSYSCQVTHEGSTVEKTVAPTECS
notes: copies: 2 + 2
B2: A375-P587/B167-Lamlib (antibody, human IgG1, lambda)
heavy: EVQLVESGGGLVKPGGSLRLSCAASGFTFSTFTMNWVRQAPGKGLEWVSSISSKSTYIEYADSFKVRFTISRDNAKNSLYLQMNSLRAEDTAVYYCARYGAKNFLNWVFDYWGQGTLVTVSSASTKGPSVFPLAPSSKSTSGGTAALGCLVKDYFPEPVTVSWNSGALTSGVHTFPAVLQSSGLYSLSSVVTVPSSSLGTQTYICNVNHKPSNTKVDKKVEPKSCDKTHTCPPCPAPDLLGGDSVFLFPPKPKDTLMISRTPEVTCVVIDVAEEDGEVKFNWYVDGVEVHNAKTKPREEQYNSTYRVVSVLTVLHQDWLNGKEYKCKVSNKALPAPIEKTISKAKGQPREPQVYTLPPSRDELTKNQVSLTCLVKGFYPSDIAVEWESNGQPENNYKTTPPVLDSDGSFFLYSKLTVDKSRWQQGNVFSCSVMHEALHNHYTQKSLSLSP
light: B1 light
notes: copies: 2 + 2
B3: A375-P253/B167-Lamlib (antibody, human IgG1, lambda)
heavy: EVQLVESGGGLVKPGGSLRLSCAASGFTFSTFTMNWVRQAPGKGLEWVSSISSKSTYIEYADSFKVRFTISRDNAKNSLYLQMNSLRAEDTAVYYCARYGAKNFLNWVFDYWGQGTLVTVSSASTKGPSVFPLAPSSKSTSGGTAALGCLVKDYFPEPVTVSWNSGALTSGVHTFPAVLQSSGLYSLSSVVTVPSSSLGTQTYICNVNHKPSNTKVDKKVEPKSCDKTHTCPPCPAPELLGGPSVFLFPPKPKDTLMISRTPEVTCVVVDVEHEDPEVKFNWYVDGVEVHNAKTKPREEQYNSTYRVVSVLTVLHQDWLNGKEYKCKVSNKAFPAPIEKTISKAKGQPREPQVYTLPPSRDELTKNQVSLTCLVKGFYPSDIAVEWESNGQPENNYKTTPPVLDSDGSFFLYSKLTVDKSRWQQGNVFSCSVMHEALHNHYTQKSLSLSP
light: B1 light
notes: copies: 2 + 2
B4: A375-MY201a/B167-Lamlib (antibody, human IgG1, lambda)
heavy: EVQLVESGGGLVKPGGSLRLSCAASGFTFSTFTMNWVRQAPGKGLEWVSSISSKSTYIEYADSFKVRFTISRDNAKNSLYLQMNSLRAEDTAVYYCARYGAKNFLNWVFDYWGQGTLVTVSSASTKGPSVFPLAPSSKSTSGGTAALGCLVKDYFPEPVTVSWNSGALTSGVHTFPAVLQSSGLYSLSSVVTVPSSSLGTQTYICNVNHKPSNTKVDKRVEPKSCDKTHTCPPCPAPELLNGPSVFLFPPKPKDTLMISRTPEVTCVVVDVSDEDPEVKFNWYVDGVEVHNAKTKPREEQYNSTYRVVSVLTVLHQDWLNGKEYKCKVSNKALPKPIEKTISKAKGQPREPQVYTLPPSREEMTKNQVSLTCLVKGFYPSDIAVEWESNGQPENNYKTTPPVLDSDGSFFLYSKLTVDKSRWQQGNVFSCSVMHEALHNHYTQKSLSLSP
light: B1 light
notes: copies: 2 + 2
B5: A375-MY518a/B167-Lamlib (antibody, human IgG1, lambda)
heavy: B4 heavy with L240W, Q300L, K331T
light: B1 light
notes: copies: 2 + 2
B6: A375-MY518/B167-Lamlib (antibody, human IgG1, lambda)
heavy: B4 heavy with R219K, L240W, Q300L, K331T
light: B1 light
notes: copies: 2 + 2
B7: A375-MY201aPh/B167-Lamlib (antibody, human IgG1, lambda)
heavy: B4 heavy with L240W
light: B1 light
notes: copies: 2 + 2
B8: A375-TT11/B167-Lamlib (antibody, human IgG1, lambda)
heavy: B4 heavy with R219K, L239Y, N241G, P243D, T255V, D273H, T312P
light: B1 light
notes: copies: 2 + 2

biological target: human FcRn (human, UniProt P55899 24-290; P61769 21-119, limits assumed); assay: SPR 25C pH 6.0, steady state;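 note: antibody captured on chip via anti-human Fab-lambda ligand, human FcRn injected as analyte in 50 mM phosphate buffer with 150 mM NaCl and P20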
Sequence (P55899 24-290 limits assumed, chain 1 of 2): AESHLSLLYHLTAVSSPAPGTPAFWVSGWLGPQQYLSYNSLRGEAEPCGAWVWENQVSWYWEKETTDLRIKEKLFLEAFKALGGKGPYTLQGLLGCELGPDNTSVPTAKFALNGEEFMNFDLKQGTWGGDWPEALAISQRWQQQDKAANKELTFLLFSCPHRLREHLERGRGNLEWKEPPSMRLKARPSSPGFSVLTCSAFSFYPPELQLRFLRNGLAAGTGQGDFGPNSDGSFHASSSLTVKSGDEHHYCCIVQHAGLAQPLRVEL
Sequence (P61769 21-119 limits assumed, chain 2 of 2): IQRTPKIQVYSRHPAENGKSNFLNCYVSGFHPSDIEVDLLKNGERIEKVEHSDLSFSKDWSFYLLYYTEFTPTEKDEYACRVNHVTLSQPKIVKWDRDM
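Throughout, for binding per 1RU of antibody: biacore SPR with antibody captured on an anti-human Fab lambda chip, human FcγR injected at 1000 nM (FcγRIa at 8 nM) in pH 7.4 phosphate buffer.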

Binder	Kd
B1	1270 nM
B2	1700 nM
B3	1420 nM
B4	1190 nM
B5	1320 nM
B6	1270 nM
B7	1180 nM
B8	1560 nM

biological target: T4, hFcgRIIIaV (human, UniProt P08637 17-208); assay: SPR 25C; relative to A375-G1T3/B167-Lamlib;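 note: SPR with antibody captured on an anti-human Fab-lambda chip, human FcγR analyte at 8 nM for FcγRIa or 1000 nM for the others, pH 7.4, FcγR RU per captured antibody unit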
T4 construct: extracellular domain; also called human FcγRIIIa allotype V158
T4 sequence (P08637 17-208 F176V): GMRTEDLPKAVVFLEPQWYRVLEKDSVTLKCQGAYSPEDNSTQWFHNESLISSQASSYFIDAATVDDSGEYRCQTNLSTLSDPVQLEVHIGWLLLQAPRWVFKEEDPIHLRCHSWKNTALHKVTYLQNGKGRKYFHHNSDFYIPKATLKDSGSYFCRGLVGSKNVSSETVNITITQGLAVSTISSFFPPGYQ

Binder	relative binding amount
B1	1
B2	0
B3	0.03
B4	0.03
B5	0.01
B6	0.02
B7	0.02
B8	-0.01

biological target: T1, hFcgRIIaR; assay: SPR 25C; relative to A375-G1T3/B167-Lamlib;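 note: SPR with antibody captured on an anti-human Fab-lambda chip, human FcγR analyte at 8 nM for FcγRIa or 1000 nM for the others, pH 7.4, FcγR RU per captured antibody unit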

Binder	relative binding amount
B1	1
B2	0.8
B3	3.62
B4	0.73
B5	1.01
B6	0.99
B7	0.72

biological target: T2, hFcgRIIb; assay: SPR 25C; relative to A375-G1T3/B167-Lamlib;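 note: SPR with antibody captured on an anti-human Fab-lambda chip, human FcγR analyte at 8 nM for FcγRIa or 1000 nM for the others, pH 7.4, FcγR RU per captured antibody unit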

Binder	relative binding amount
B1	1
B2	13
B3	14.3
B4	3.66
B5	4.46
B6	4.4
B7	2.85
B8	4.35

biological target: T5, hFcgRIIIaF (human, UniProt P08637 17-208); assay: SPR 25C; relative to A375-G1T3/B167-Lamlib;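 note: SPR with antibody captured on an anti-human Fab-lambda chip, human FcγR analyte at 8 nM for FcγRIa or 1000 nM for the others, pH 7.4, FcγR RU per captured antibody unit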
T5 construct: extracellular domain; also called human FcγRIIIa allotype F158
T5 sequence (P08637 17-208): as the sequence (P08637 17-208 F176V) above, with V160F counted along it

Binder	relative binding amount
B1	1
B2	0
B3	0.26
B4	0.04
B5	0.03
B6	0.04
B7	0.03
B8	-0.04

biological target: T6, hFcgRIa (human, UniProt P12314 16-292); assay: SPR 25C; relative to A375-G1T3/B167-Lamlib
T6 construct: extracellular domain; also called human FcγRIa; FcγRI
T6 sequence (P12314 16-292): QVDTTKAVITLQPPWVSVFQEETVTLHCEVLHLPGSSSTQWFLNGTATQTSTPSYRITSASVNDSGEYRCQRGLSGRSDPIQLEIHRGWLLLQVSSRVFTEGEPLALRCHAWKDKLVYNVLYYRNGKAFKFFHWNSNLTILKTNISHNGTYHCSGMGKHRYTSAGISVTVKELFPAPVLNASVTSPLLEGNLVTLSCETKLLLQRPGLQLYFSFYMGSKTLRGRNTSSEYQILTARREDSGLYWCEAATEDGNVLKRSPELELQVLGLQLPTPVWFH

Binder	relative binding amount
B1	1
B2	1.18
B3	1.15
B4	0.49
B5	0.04
B6	0.02
B7	0.05

biological target: T3, hFcgRIIaH; assay: SPR 25C; relative to A375-G1T3/B167-Lamlib

Binder	relative binding amount
B1	1
B2	0.05
B3	0.88
B4	0.94
B5	0.84
B6	0.82
B7	0.58
B8	0.03

biological target: T4, hFcgRIIIaV; assay: SPR 25C

Binder	binding per 1RU of antibody
B1	0.07 RU
B2	0.0001 RU
B3	0.0019 RU
B4	0.0024 RU
B5	0.0009 RU
B6	0.0015 RU
B7	0.0011 RU
B8	-0.001 RU

biological target: T1, hFcgRIIaR; assay: SPR 25C

Binder	binding per 1RU of antibody
B1	0.0463 RU
B2	0.0371 RU
B3	0.168 RU
B4	0.0338 RU
B5	0.047 RU
B6	0.046 RU
B7	0.0335 RU

biological target: T2, hFcgRIIb; assay: SPR 25C

Binder	binding per 1RU of antibody
B1	0.011 RU
B2	0.143 RU
B3	0.156 RU
B4	0.0401 RU
B5	0.0489 RU
B6	0.0482 RU
B7	0.0313 RU
B8	0.0477 RU

biological target: T5, hFcgRIIIaF; assay: SPR 25C

Binder	binding per 1RU of antibody
B1	0.0213 RU
B2	0.0001 RU
B3	0.0056 RU
B4	0.0007 RU
B5	0.0006 RU
B6	0.0009 RU
B7	0.0007 RU
B8	-0.0009 RU

biological target: T6, hFcgRIa; assay: SPR 25C

Binder	binding per 1RU of antibody
B1	0.0813 RU
B2	0.0962 RU
B3	0.0937 RU
B4	0.0396 RU
B5	0.0033 RU
B6	0.002 RU
B7	0.004 RU

biological target: T3, hFcgRIIaH; assay: SPR 25C

Binder	binding per 1RU of antibody
B1	0.0567 RU
B2	0.0029 RU
B3	0.0497 RU
B4	0.0534 RU
B5	0.0479 RU
B6	0.0466 RU
B7	0.0328 RU
B8	0.002 RU
